Results: patent US20230031280A1, “GLP-2 FUSION POLYPEPTIDES AND USES FOR TREATING AND PREVENTING GASTROINTESTINAL CONDITIONS” (SHIRE-NPS PHARMACEUTICALS, INC., priority 2017, published 2023)

What was measured:
[1] = Cynomolgus monkey pharmacokinetic study; format: in vivo, cynomolgus monkeys; settings: 0.75 mg/kg
Procedure: Pharmacokinetics studies of teduglutide, GLP-2 Peptibody B and GLP-2 Peptibody K were formed in cynomolgus monkeys with citrulline assayed as a biomarker of GLP-2 concentration. In the study, 12.5 nmol/kg teduglutide was administered subcutaneously to a group of 6 male cynomolgus monkeys at day 1. Then for one set of 2 monkeys, 25 nmol/kg GLP-2 Peptibody B was administered intravenously at day 7, day 21, day 28, day 35, and day 42. For another set of 3 monkeys, 25 nmol/kg GLP-2 Peptibody B was administered subcutaneously at day 7, day 21, day 28, day 35, and day 42. For another set of monkeys, 5 nmol/kg GLP-2 Peptibody K was administered intravenously (2 monkeys) and subcutaneously (3 monkeys) at day 7, day 21, day 28, day 35, and day 42. For another set of monkeys, 25 nmol/kg GLP-2 Peptibody K was administered subcutaneously (3 monkeys) and intravenously (2 monkeys) at day 7, day 21, day 28, day 35, and day 42.

[2] = SEC-MALS (Sepax Zenix C-150) peak distribution; format: physicochemical
Procedure: A SEC-MALS assay was performed to determine the primary state (main peak) and its molecular weight. […] The GLP-2 peptibody O (albumin fusion) eluted at a molecular weight indicative of a monomer.
(§1) Stability analysis was then performed using SEC-MALS and NanoDSF. For SEC-MALS, a Sepax Zenix C-150 column was used. The mobile phase buffer was 1× PBS with a final concentration of 400 mM NaCl. The flow rate was 0.8 mL per minute. 20 micrograms of total protein was injected. For NanoDSF, 10 microliters of sample was used, without normalization of the samples.
as §1

[3] = molecular target: T1, hFcRn (extracellular domain of the FcRN) (Homo sapiens, UniProt P55899); experiment: FcRn binding by surface plasmon resonance (Biacore)
T1 construct: made in house
T1 sequence (P55899 24-297 limits assumed): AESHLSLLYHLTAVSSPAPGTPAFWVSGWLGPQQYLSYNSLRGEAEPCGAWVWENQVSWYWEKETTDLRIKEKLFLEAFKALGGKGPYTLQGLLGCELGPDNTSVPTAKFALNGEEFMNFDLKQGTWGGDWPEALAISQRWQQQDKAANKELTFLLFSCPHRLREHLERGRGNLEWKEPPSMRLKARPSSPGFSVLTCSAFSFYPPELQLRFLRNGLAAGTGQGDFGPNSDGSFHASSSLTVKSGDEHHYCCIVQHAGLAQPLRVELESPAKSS
T1 sequence (P61769 21-119 partner): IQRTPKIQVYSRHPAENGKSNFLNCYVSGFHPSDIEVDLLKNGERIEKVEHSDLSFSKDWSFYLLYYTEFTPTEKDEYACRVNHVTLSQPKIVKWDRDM
From the text: Binding to the Fc neonatal receptor (FcRN) allows for recycling of the molecules and leads to an extended in vivo serum half-life of the Fc fusion proteins. Recycling occurs as the molecules are passively taken into the cells and the pH of the endosomes is lower. That leads to binding of the Fc portion of the molecule to the FcRN. When the FcRN recycles back to the surface of the cell, the pH is then neutral and the protein is released back into the serum.
Binding to the extracellular domain of the FcRN was measured by surface plasmon resonance (SPR) using a Biacore system. Direct immobilization with FcRn was achieved via amine coupling of a CM5 chip with FcRn under the following conditions: • i) hFcRn (expressed and purified in house) is diluted in Acetate buffer pH 5.0 to 5 μg/mL. • ii) Immobilize 5 μg/mL of FcRn with target of 500 RU on CM5 chip in PBS pH 7.0 • iii) Final response 454 RU • iv) Running buffer: PBS-P+, pHed to 5.5
The kinetic binding study was done using the following protocol. Samples were diluted in PBS-P+ to 50, 25, 12.5, 6.25, 3.125, 1.56, 0.78, 0.39, 0 nM. The parameters were set as follows: • i) Association and Dissociation 300 s at Flow rate 30 μL/min • ii) Regeneration with 25 mM Tris, 150 mM NaCl pH 8.0 40 s at 60 μL/min
A measurement of the binding of the GLP-2 peptibodies to the Fc neonatal receptor (FcRN) was undertaken at pH 5.5 and pH 7.4.

[4] = NanoDSF melting temperature / thermal stability; format: physicochemical
Procedure: Each of the GLP-2 peptibodies was tested by determining melting temperature with nanodifferential scanning fluorimetry (NanoDSF). NanoDSF is a measurement of protein stability over a range of temperatures, with a temperature ramp employed. The stability of tryptophan is measured by fluorescence, as reflected in a ratio of fluorescence at 350 nm to fluorescence at 330 nm. From the assay, one or more melting temperatures are determined. Because a protein in a certain state is understood to have a melting temperature, the number of melting temperatures observed reflects the number of different states.
as §1, §1

[5] = Rat pharmacokinetics, subcutaneous dosing; format: in vivo, Sprague-Dawley rats; settings: single dose 1 mg/ml
Procedure: (§2) In the rat, four pharmacokinetic parameters were measured for Gattex® (a GLP-2 peptide having the A2G mutation): CL, Vc, Vt and Q. The same pharmacokinetic parameters were also measured for GLP-2 peptibodies A, B, E, J, K, L, M, O and P. The data is shown in Table 5. Male Sprague-Dawley rats (3 animals per group) were injected subcutaneously into the intra-scapular region of the animal. A singles dose of test article was injected at a dose level of 1 mg/ml. The test articles were formulated in PBS pH 7.4 at a concentration of Blood samples were taken 0.083, 0.167, 0.33, 0.5, 1, 2, 6, 24, 48, 72, 120, 168, 240, and 336 hours post dose. Blood samples were collected into heparinized tubes and centrifuged for 5 minutes at 2000 xg within 10 minutes of collection. 100 μL of plasma were transferred to a 1.51 ml Eppendorf tube containing 2 μL of 50 mM PMSF. After mixing the plasma samples were frozen at −80° C. until analysis. Meso Scale Discovery (MSD) ELISA was undertaken to assay for the concentration of the GLP-2 peptibodies.
A sandwich immunoassay was developed using either an anti-Human IgG1 Fc antibody or an anti-human albumin antibody for capture of the peptibody and a sulfotag labeled anti GLP-2 antibody for detection.

[6] = Projection of intravenous and subcutaneous PK parameters for humans; parameters: species or system human
Procedure: While a dose of 30 μg/kg once weekly (QW) is projected from the cynomolgus monkey PK data, the dose should be ten times higher (300 μg/kg) to adjust for the difference in in vivo potency.

[7] = Rat pharmacokinetics, intravenous dosing; format: in vivo, Sprague-Dawley rats; settings: single dose 1 mg/ml
Procedure: as §2, with “4.” for “5.”, “intravenously either via a jugular vein or tail vein catheter.” for “subcutaneously into the intra-scapular region of the animal.”, “1.5” for “1.51”, “mixing,” for “mixing”, “analysis.” for “analysis. Meso Scale Discovery (MSD) ELISA was undertaken to assay for the concentration of the GLP-2 peptibodies.”

## GLP-2 peptibody B: GLP-2[A2G]-GGGGG linker-IgG1 Fc (LALA) with C-terminal lysine; SEQ ID NO: 4
[1]; MDPK, intravenous
  CL: 0.417 mL/h/kg
  Q: 1.2 mL/h/kg
  Vc: 0.0187 L/kg
  Vt: 0.0329 L/kg
[1]; MDPK, subcutaneous
  CL/F: 0.737 mL/h/kg
  Vc: 0.094 L/kg
  association constant (ka): 1.59 day⁻¹
[1]; SDPK, intravenous
  CL: 0.396 mL/h/kg
  Q: 1.11 mL/h/kg
  Vc: 0.0171 L/kg
  Vt: 0.0276 L/kg
[1]; SDPK, subcutaneous
  CL/F: 0.737 mL/h/kg
  Vc: 0.0924 L/kg
  association constant (ka): 1.52 day⁻¹
[2]
  SEC-MALS Zenix C-150 main peak: 85% main peak, 158,800 g/mol
[3]; pH 5.5
  Kd: 1.7 nM
[3]; pH 7.4
  FcRN KD at pH 7.4: No binding in range tested.
[4]; first transition
  NanoDSF melting temperature 1: 1 = 67.1 °C
[4]; second transition
  NanoDSF melting temperature 2: 2 = 79.9 °C
[5]
  CL: 1.79 mL/h/kg
  Q: 2.17 mL/h/kg
  Vc: 0.073 L/kg
  Vt: 0.068 L/kg
  ka: B (0.45 ka/day,
[6]
  Vc: 0.0494 L/kg
  Vt: 0.0425 L/kg
  ka: 2.43 day⁻¹
[6]; exponent on CL 0.85, monkey 3.5 kg, human 70 kg
  CL (value in parentheses): 1.04 mL/h/kg
[6]; first value of cell
  CL: 1.63 mL/h/kg
  F: 98%
  Q: 1 mL/h/kg
[6]; value in parentheses
  F (value in parentheses): 60%
  Q (value in parentheses): 0.642 mL/h/kg
[7]
  CL: 2 mL/h/kg
  Q: 2.42 mL/h/kg
  Vc: 0.031 L/kg
  Vt: 0.076 L/kg
